Source: PMC7921785

Target: T1, rPcDp1 (recombinant Dp1) (Pseudosciaena crocea (large yellow …, UniProt D2CFQ6 1-412))
T1 sequence: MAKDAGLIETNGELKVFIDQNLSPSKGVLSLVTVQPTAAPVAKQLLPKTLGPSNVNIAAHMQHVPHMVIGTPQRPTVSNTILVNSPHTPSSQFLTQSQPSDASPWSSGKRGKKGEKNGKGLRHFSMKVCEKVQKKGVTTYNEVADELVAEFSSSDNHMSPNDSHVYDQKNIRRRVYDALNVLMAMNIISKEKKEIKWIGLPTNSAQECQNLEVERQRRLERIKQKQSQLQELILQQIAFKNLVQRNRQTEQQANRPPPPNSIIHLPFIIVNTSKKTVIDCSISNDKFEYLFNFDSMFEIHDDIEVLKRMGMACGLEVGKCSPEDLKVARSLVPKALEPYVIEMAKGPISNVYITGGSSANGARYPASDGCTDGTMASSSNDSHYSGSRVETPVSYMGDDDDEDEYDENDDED
Experiment: EMSA

B1: wE2F (WE2Fsite) (dsDNA)
DNA 1: GAGATGACGTAGTTTTCGCGCGAAACTAG
DNA 2: CTAGTTTCGCGCGAAAACTACGTCATCTC
binding result: binds
